2 substances from patent publication US20250223606 can be followed below.

Series [1] has as its system TALED psaA Left (TALE array-split DddAtox/TadA-derived AD) (synthetic construct). As to the kind of experiment: cell_activity. The following applies: pair with P4; A6 14.66 and 12.27, A5 10.67 and 7.68; lettuce protoplasts 7 days after mRNA; callus A5 8.4 and 7.5, A6 12.2 and 10.0.
The subject of series [2] is TALED psaA Right (TALE array-split DddAtox/TadA-derived AD) (synthetic construct). As to the kind of experiment: cell_activity. To be noted: pair with P3; A6 14.66 and 12.27, A5 10.67 and 7.68; lettuce protoplasts 7 days after mRNA.

For “lettuce chloroplast psaA start codon, left half-site”, in series [1], the activity was determined as 14.7 % editing. “lettuce chloroplast psaA start codon, right half-site” showed an activity in series [2] of 14.7 % editing.
